Non-standard residues stand in square brackets, D forms with d. No end group written: not given here.
Legend:
[1] = target: alpha-1-acid glycoprotein (AGP) (Homo sapiens, UniProt P02763); assay: TRANSIL XL AGP bead binding with liquid scintillation counting
[2] = target: human serum albumin (HSA) (Homo sapiens, UniProt P02768); assay: TRANSIL XL HSA bead binding with liquid scintillation counting

alpha-1-acid glycoprotein (AGP), sequence (P02763 19-201): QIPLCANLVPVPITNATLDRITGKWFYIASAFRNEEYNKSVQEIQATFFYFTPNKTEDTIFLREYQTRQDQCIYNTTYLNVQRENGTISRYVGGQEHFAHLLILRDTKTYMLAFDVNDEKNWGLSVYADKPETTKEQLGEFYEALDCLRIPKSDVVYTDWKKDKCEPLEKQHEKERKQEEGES

[dR][dK][dR][dI][dR][dL][dV][dT][dK][dK][dK][dR]-NH2 (also: 3H-labelled tracer) [ANK6]
Kd [1]: 290 nM

cyclo([dR][dK][dR][dI][dR][dL][dV][dT][dK][dK][dK][dR][dR]) (also: 3H-labelled tracer) [cANK6r]
Kd [1]: 280 nM
Kd [2]: 599000 nM

[dR][dK][dR][dI][dR][dL][dV][dT][dK][dK][dK][dR][dR][dK][dR][dI][dR][dL][dV][dT][dK][dK][dK][dR]-NH2 (also: 3H-labelled tracer) [tANK6]
Kd [1]: 60 nM
Kd [2]: 138000 nM

— publication PMC6218115 (2018)
